# Where a SMILES comes first, the peptide text is derived from it. Bridges are numbered along the chain shown (N, C = ends). The star is where a group is joined. Biotin = O=C1N[C@H]2[C@H](CS[C@H]2CCCCC(=O)*)N1; AEEA = NCCOCCOCC(=O)O
# Assay: circular dichroism
# Details: Milli-Q water; pH ns; ns °C; 0.5 mM
row,Compound,helicity [MRE222]
1,CC(C)[C@H](N)C(=O)N[C@@H](CO)C(=O)N[C@@H](CCCCN)C(=O)N[C@H]1CCC(=O)NCCCC[C@@H](C(=O)N[C@H](C(=O)N[C@@H](CCCCN)C(=O)N[C@@H](CCCNC(=N)N)C(=O)N[C@@H](CCCCN)C(=O)N[C@@H](CCC(N)=O)C(=O)N[C@@H](CC(N)=O)C(N)=O)C(C)C)NC(=O)[C@H](CCC(N)=O)NC(=O)[C@H](CO)NC(=O)[C@H](CCCNC(=N)N)NC1=O (H-VSKERSQKVKRKQN-NH2; lactam 4-8),-2260
2,CC(C)C[C@@H]1NC(=O)[C@H](CCC(N)=O)NC(=O)[C@H](CO)NC(=O)[C@@H](NC(=O)[C@H](CC(C)C)NC(=O)[C@H](CCCCN)NC(=O)[C@H](CO)NC(=O)[C@@H](N)C(C)C)CCC(=O)NCCCC[C@@H](C(=O)N[C@@H](CCCCN)C(=O)N[C@@H](CCCNC(=N)N)C(=O)N[C@@H](CCCCN)C(=O)N[C@@H](CCC(N)=O)C(=O)N[C@@H](CC(N)=O)C(N)=O)NC1=O (H-VSKLESQLKKRKQN-NH2; lactam 5-9),-4400
3,CC(C)C[C@H](NC(=O)[C@H](CCCCN)NC(=O)[C@H](CO)NC(=O)[C@@H](N)C(C)C)C(=O)N[C@@H](CCCNC(=N)N)C(=O)N[C@H]1CCC(=O)NCCCC[C@@H](C(=O)N[C@@H](CCCNC(=N)N)C(=O)N[C@@H](CCCCN)C(=O)N[C@@H](CCC(N)=O)C(=O)N[C@@H](CC(N)=O)C(N)=O)NC(=O)[C@H](C(C)C)NC(=O)[C@H](CC(C)C)NC(=O)[C@H](CCC(N)=O)NC1=O (H-VSKLREQLVKRKQN-NH2; lactam 6-10),-4400
4,CC(C)C[C@H](NC(=O)[C@H](CCCCN)NC(=O)[C@H](CO)NC(=O)[C@@H](N)C(C)C)C(=O)N[C@@H](CCCNC(=N)N)C(=O)N[C@@H](CO)C(=O)N[C@H]1CCC(=O)NCCCC[C@@H](C(=O)N[C@@H](CCCCN)C(=O)N[C@@H](CCC(N)=O)C(=O)N[C@@H](CC(N)=O)C(N)=O)NC(=O)[C@H](CCCCN)NC(=O)[C@H](C(C)C)NC(=O)[C@H](CC(C)C)NC1=O (H-VSKLRSELVKKKQN-NH2; lactam 7-11),-1570

# Same assay, conditions: water (methods paragraph says 0.1 M phosphate; tables say water); pH ns; 20 °C; 0.5 mM
row,Compound,helicity [MRE222]
1,CC(=O)N[C@H](C(=O)N[C@@H](CO)C(=O)N[C@@H](CCCCN)C(=O)N[C@@H](CC(C)C)C(=O)N[C@H]1CCC(=O)NCCCC[C@@H](C(=O)N[C@@H](CCCCN)C(=O)N[C@@H](CCCNC(=N)N)C(=O)N[C@@H](CCCCN)C(=O)N[C@@H](CCC(N)=O)C(=O)N[C@@H](CC(N)=O)C(N)=O)NC(=O)[C@H](CC(C)C)NC(=O)[C@H](CCC(N)=O)NC(=O)[C@H](CO)NC1=O)C(C)C (Ac-VSKLESQLKKRKQN-NH2; lactam 5-9),-6450
2,CC(=O)N[C@H](C(=O)N[C@@H](CO)C(=O)N[C@@H](CCCCN)C(=O)N[C@@H](CC(C)C)C(=O)N[C@H]1CCCCNC(=O)CC[C@@H](C(=O)N[C@@H](CCCCN)C(=O)N[C@@H](CCCNC(=N)N)C(=O)N[C@@H](CCCCN)C(=O)N[C@@H](CCC(N)=O)C(=O)N[C@@H](CC(N)=O)C(N)=O)NC(=O)[C@H](CC(C)C)NC(=O)[C@H](CCC(N)=O)NC(=O)[C@H](CO)NC1=O)C(C)C (Ac-VSKLKSQLEKRKQN-NH2; lactam 5-9),-974
3,CC(=O)N[C@H](C(=O)N[C@@H](CO)C(=O)N[C@@H](CCCCN)C(=O)N[C@@H](CC(C)C)C(=O)N[C@@H](CCCNC(=N)N)C(=O)N[C@H]1CCC(=O)NCCCC[C@@H](C(=O)N[C@@H](CCCNC(=N)N)C(=O)N[C@@H](CCCCN)C(=O)N[C@@H](CCC(N)=O)C(=O)N[C@@H](CC(N)=O)C(N)=O)NC(=O)[C@H](C(C)C)NC(=O)[C@H](CC(C)C)NC(=O)[C@H](CCC(N)=O)NC1=O)C(C)C (Ac-VSKLREQLVKRKQN-NH2; lactam 6-10),-4850
4,CC(=O)N[C@H](C(=O)N[C@@H](CO)C(=O)N[C@@H](CCCCN)C(=O)N[C@@H](CC(C)C)C(=O)N[C@@H](CCCNC(=N)N)C(=O)N[C@H]1CCCCNC(=O)CC[C@@H](C(=O)N[C@@H](CCCNC(=N)N)C(=O)N[C@@H](CCCCN)C(=O)N[C@@H](CCC(N)=O)C(=O)N[C@@H](CC(N)=O)C(N)=O)NC(=O)[C@H](C(C)C)NC(=O)[C@H](CC(C)C)NC(=O)[C@H](CCC(N)=O)NC1=O)C(C)C (Ac-VSKLRKQLVERKQN-NH2; lactam 6-10),-1980
5,Ac-VSKLRSQLVKRKQN-NH2,-1100

# Assay: not given
# Details: biotinylated peptide, HA coated ELISA plate
row,Compound,peptide concentration required for equivalent interaction with HA [ng/mL]
1,"Biotin-AEEA-(cyclo-6,10)-VSKLR[EQLVK]RKQN-NH2 [Compound 287]",80
2,{Biotin-AEEA}-VSKLRSQLVKRKQN-NH2 [Compound 284],10000

# Reference: patent US10562935B2, “Stapled peptides and uses thereof” (London Health Sciences Centre Research Inc., priority 2015, dated 2020)
